The text below walks through data of the supplement of paper PMC12764529.

The nature of series [1]: folding stability dG unfold from chymotrypsin proteolysis; higher = more stable. The essentials: (§1)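 Mini-proteins designed to be under 80 residues and free of cysteine were carried in a PA-tagged cDNA display construct and digested with trypsin and with chymotrypsin. Each protease was applied at 11 threefold-diluted concentrations, alongside a no-protease condition, before sequencing. K50 came from Bayesian fitting of the sequencing counts, and unfolding free energy was obtained by comparing it with a sequence-predicted unfolded-state K50 and a shared folded-state K50, for each protease separately or for both together. Designs were retained only if their AlphaFold2 dimer inter-PAE exceeded 15.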

Series [2] can be described thus: folding stability dG unfold from trypsin proteolysis; higher = more stable. The procedure, abridged: as §1
Series [3] can be described thus: folding stability dG unfold (combined trypsin and chymotrypsin); higher = more stable. The essentials:
as §1

± gives the half width of the 95% confidence interval.

As for “SAGMPYIKVKITVIHPDNKEKEAEFVFDLKDGKIDLKPEVIEKALEELGIPKDYEIKIEIVEIKEPDESAGG [r19_287_TrMRF]”, the figures for the “folding stability dG unfold” value in series [1], in series [2] and in series [3] were 2.82 ± 0.16 kcal/mol, 2.5 ± 0.13 kcal/mol and 2.81 ± 0.16 kcal/mol, respectively.
On the same counts, the results for “SAGMQLLPSATVTLTNPKTGETTTVSVQALRDELAARRGTTDPAAITEADIEAWAKEQGYDPITFTLPSAGG [r19_67_JUSTAS]” are 2.55 ± 0.027 kcal/mol, 2.96 ± 0.069 kcal/mol and 2.78 ± 0.076 kcal/mol.
On the same counts, the results for “SAGMSLEEIAKEFAKKKGLKKVEIKYYPEKKTYEIKVYLEEPGEPKTATIKVEDVTPETFKKAIEEILESAG [r5_896_TrMRF]” are 4.75 ± 0.16 kcal/mol, 3.61 ± 0.32 kcal/mol and 4.83 ± 0.41 kcal/mol.
On the same counts, the results for “SAGMSLEELAKELAKKLNIEKVEIKYDKETNKVTIKIYFKKNKKKITITIKKENMTPEEIKKLLEEILKSAG [r5_896_TrROS_Hall]” are 4.51 ± 0.098 kcal/mol, 2.9 ± 0.12 kcal/mol and 4.41 ± 0.19 kcal/mol.
“SAGMSPELLEALRKAAEEEGLEVVEIKVEKLPNGEVKITIRLKNGKEIKEITLPKDVKTPEEALKLIRESAG [r5_352_TrROS_Hall]”: the “folding stability dG unfold” value in series [1] turned out to be 4.04 ± 0.081 kcal/mol; in series [2], 4.82 ± 0.34 kcal/mol; in series [3] it was 4.31 ± 0.1 kcal/mol.
Turning to “SAGMSVTLEFTDPDKSAEELKEEIMKKVGIPENYPVKVTETPSPADGYTLTITVDDPKVAEAIKKALSSAGG [r19_215_JUSTAS]”, the “folding stability dG unfold” value in series [1] came out at 1.742 ± 0.016 kcal/mol; in series [2], 1.26 ± 0.037 kcal/mol; in series [3], 1.57 ± 0.066 kcal/mol.
On the same counts, the results for “SAGMTAEELAAEALAKLPPGAKEVTVEIEVNGELVTVTITVEAAPPPPPPEETITTVDEDTGEVREETLSAG [r5_236_TrROS_Hall]” are 0.119 ± 0.034 kcal/mol, 1.44 ± 0.058 kcal/mol and 0.854 ± 0.068 kcal/mol.
Turning to “SAGMTEEELKKLKEKFPNLKIEPVKTITIKVEPNASVEEIAKKLKELLNIDKVEIEVNEETGEITIRIYSAG [r5_694_TrROS_Hall]”, the results for the “folding stability dG unfold” value in series [1], in series [2] and in series [3] were 4.07 ± 0.16 kcal/mol, 2.98 ± 0.15 kcal/mol and 3.69 ± 0.23 kcal/mol, respectively.
On the same counts, the results for “SAGMTFEAEVKEKTIYIPEINNIIKIKIVNLKPPEGPIIPIIKIEFYVSENTTPEDIIKLLKELNIPVESAG [r5_486_TrMRF]” are 2.11 ± 0.024 kcal/mol, 2.09 ± 0.16 kcal/mol and 2.07 ± 0.099 kcal/mol.
On the same counts, the results for “SAGMTFPPGMTIEELKELLKKLGIKEVTVTYDKETNTVTVTVTVEGKTITITVTLPAPPVVVKEEGEEKSAG [r5_899_TrROS_Hall]” are 3 ± 0.1 kcal/mol, 1.77 ± 0.059 kcal/mol and 2.53 ± 0.17 kcal/mol.
On the same counts, the results for “SAGMTIRIVVPKKDMSVEELAKKLKEELGLPEDAKVTIKVEKLPNGELVLTITVPSEEERKKIEELLKSAGG [r19_215_TrROS_Hall]” are 2.91 ± 0.15 kcal/mol, 2.9 ± 0.13 kcal/mol and 2.98 ± 0.25 kcal/mol.
For the sequence “SAGMTIVIEIPSSTSYEDAVKAIKKIAKEIKEKGKKFKIVVLTKDPKIAEAIKKALEELGIPLEVKIGSAGG [r19_268_TrMRF]”, the results for the “folding stability dG unfold” value in series [1], in series [2] and in series [3] were 2.91 ± 0.043 kcal/mol, 2.77 ± 0.07 kcal/mol and 2.93 ± 0.059 kcal/mol, respectively.
Regarding “SAGMTLTIEVLIKVETPEEARKAAEELARRLAEEGYTVTVEVVKVEEVTLPDGSKYYRVTVKVTVEPAPSAG [r5_158_TrROS_Hall]”, the “folding stability dG unfold” value turned out to be 5.62 ± 0.15 kcal/mol in series [1], 5.08 ± 0.38 kcal/mol in series [2] and 5.78 ± 0.31 kcal/mol in series [3].
On the same counts, the results for “SAGMTPDTTLPDLVVTIYSPDGTSTTYTFPNVTRVTEVDPETGKLTLYSPEGRTITLTLSPDEKVEIVGSAG [r5_762_JUSTAS]” are 3.024 ± 0.027 kcal/mol, 2.45 ± 0.035 kcal/mol and 2.84 ± 0.037 kcal/mol.
As to “SAGMTPEEVAEELREKLGLKEVTIERDPAADTLTITVTLPSPGETKTAVVPASALTPEAIRELLLEVLSSAG [r5_896_JUSTAS]”, the “folding stability dG unfold” value in series [1] was 2.4 ± 0.024 kcal/mol; in series [2], 2.77 ± 0.071 kcal/mol; in series [3], 2.58 ± 0.048 kcal/mol.
In the case of “SAGMTSVEKRTLTFETEEEAEKEIKKIADELKKKGYKTEVKIEEVTKEKTEKGDSRYKVTATMKITKKESAG [r5_158_JUSTAS]”, the “folding stability dG unfold” value in series [1] turned out to be 0.792 ± 0.14 kcal/mol; in series [2] it was 0.681 ± 0.074 kcal/mol; in series [3], 0.76 ± 0.17 kcal/mol.
Take “SAGMTTTLTKTEKFPDGTTVTYTTVTAPDGTPLTATATYDPNNPNKATTTTTDPATGTTTTTTTTITGGSAG [r5_345_JUSTAS]”: the figures for the “folding stability dG unfold” value in series [1], in series [2] and in series [3] were 0.674 ± 0.11 kcal/mol, 1.03 ± 0.065 kcal/mol and 0.852 ± 0.12 kcal/mol, respectively.
On the same counts, the results for “SAGMTTVEVTRTFPADVPVTEEDLELAEKEREEIAAELPESYVVTLASVTYERRPDSWTVTATFTITAPSAG [r5_121_JUSTAS]” are 2.11 ± 0.06 kcal/mol, 1.47 ± 0.017 kcal/mol and 1.85 ± 0.045 kcal/mol.
On the same counts, the results for “SAGMTVEELRNLPPGYRVLEVKFDPETGKYTVVVERPDEDGVPHKVTIEVDGLEELEEFFKTGLTELKLSAG [r5_905_TrMRF]” are 0.897 ± 0.1 kcal/mol, 1.73 ± 0.045 kcal/mol and 1.35 ± 0.16 kcal/mol.
“SAGMTVKTEVHTTTLPETGLVRTEETVTYPDGSVIRRTGDSNPETGEVTTTVTTPDGTLLATETTTITPSAG [r14_524_JUSTAS]”: the “folding stability dG unfold” value in series [1] is 0.426 ± 0.033 kcal/mol; in series [2], -0.585 ± 0.072 kcal/mol; in series [3], 0.184 ± 0.048 kcal/mol.
On the same counts, the results for “SAGMTVTLPGDKSYTVTVKYTLYDADGKKLGEKTYTKTVTVAPNSTVTINIPNTYPNTVVTEVTVTPESAGG [r19_295_JUSTAS]” are 4.38 ± 0.092 kcal/mol, 3.91 ± 0.35 kcal/mol and 4.32 ± 0.13 kcal/mol.
Take “SAGMTVTLTVSEAEFNALFGPDKDAEAIAAHLESQGYVIKSISTTSSTDPETGGRTLTITLDVEPPLVSAGG [r19_376_JUSTAS]”: the figures for the “folding stability dG unfold” value in series [1], in series [2] and in series [3] were 3.603 ± 0.036 kcal/mol, 3.29 ± 0.09 kcal/mol and 3.54 ± 0.071 kcal/mol, respectively.
On the same counts, the results for “SAGMVAEEARRRASPEELAAEEAPPRPPPPVTVVTVPREVAPEVLAALAAAEDVEVEERGDELVIRVVGSAG [r14_7_JUSTAS]” are 0.559 ± 0.1 kcal/mol, -0.583 ± 0.39 kcal/mol and 0.299 ± 0.19 kcal/mol.
On to “SAGMVIAIKPGEPRILVSGLPPELVRRIAEELGAPDVVPVEPGVPAWTALENHPDPAAFLVIPPELALSAGG [r19_270_TrMRF]”, for which the figures for the “folding stability dG unfold” value in series [1], in series [2] and in series [3] were 0.393 ± 0.12 kcal/mol, -0.822 ± 0.7 kcal/mol and 0.0501 ± 0.15 kcal/mol, respectively.
“SAGMVIAKVTVKLPNGETKTFVIEAESPEELEEQIIKELEKEYGVSPEEFPIVEIKVEFYDPEKGGLLLSAG [r5_482_TrMRF]”: the results for the “folding stability dG unfold” value in series [1], in series [2] and in series [3] were 2.23 ± 0.033 kcal/mol, 2.13 ± 0.089 kcal/mol and 2.2 ± 0.11 kcal/mol, respectively.
On the same counts, the results for “SAGMVIKIKASEELRELLKKLGLSEEEVKKLKIKLKVNGKEVEVEVEVDKETGMIYVRFKDTGKTFKLPSAG [r5_545_TrROS_Hall]” are 1.32 ± 0.15 kcal/mol, 1.61 ± 0.042 kcal/mol and 1.53 ± 0.13 kcal/mol.
On the same counts, the results for “SAGMVIRLTSPTGSLEITITVEPDGETREAVVKAASGEEVSVIPPSVSVEEIKKRFPDVTASEEPLDLPSAG [r5_314_JUSTAS]” are 0.653 ± 0.038 kcal/mol, 0.518 ± 0.037 kcal/mol and 0.628 ± 0.071 kcal/mol.
On the same counts, the results for “SAGMVITETEELPDRTITTVKYSDGKVVIETLEYDPNSNVVTKTVTTIDLSNPSVSKTTTTVEPDPAPSAGG [r19_102_JUSTAS]” are 1.81 ± 0.063 kcal/mol, 1.15 ± 0.099 kcal/mol and 1.62 ± 0.092 kcal/mol.
Regarding “SAGMVITLERTIPPTVSVSPEEAVAAIKAELEATPGVTVTAVNSVTVTPLPDGTLRVTVDIVVDRPEPSAGG [r19_396_JUSTAS]”, the “folding stability dG unfold” value in series [1] amounted to 2.634 ± 0.024 kcal/mol; in series [2], 2.23 ± 0.037 kcal/mol; in series [3], 2.53 ± 0.06 kcal/mol.
On the same counts, the results for “SAGMVIVIDKKKKKIYIFAPSKEMAEKIAKELNLKDVKVYEKGTSIEELLKKHPDVEKVIVLPAEELKSAGG [r19_270_TrROS_Hall]” are 2.87 ± 0.056 kcal/mol, 1.45 ± 0.049 kcal/mol and 2.65 ± 0.27 kcal/mol.
In the case of “SAGMVKIEIEVKVEKDEDGRLRVTVRITIYDEKTGEKLKEIEIEVEAPSEEEAERAARKKAEELLKELSAGG [r19_255_TrROS_Hall]”, the “folding stability dG unfold” value in series [1] was found to be 2.58 ± 0.087 kcal/mol; in series [2] it was 3.9 ± 0.18 kcal/mol; in series [3] it was 3.25 ± 0.19 kcal/mol.
On the same counts, the results for “SAGMVKTEPDPNSDIVRRTFTVQVPVRIPPGEWRELTIEVPFDEVYGPGGVPVDPVSEEEIEAAIKALLSAG [r5_239_JUSTAS]” are 1.15 ± 0.087 kcal/mol, 0.966 ± 0.037 kcal/mol and 1.07 ± 0.096 kcal/mol.
Consider “SAGMVRIELRPRPDGRPIALIDVGAPGGPPRRFEIEVDETETLDDIAERLRAEGFDLPEGIDLEELAGSAGG [r19_263_TrMRF]”, for which the results for the “folding stability dG unfold” value in series [1], in series [2] and in series [3] were 2.243 ± 0.011 kcal/mol, 1.08 ± 0.018 kcal/mol and 1.91 ± 0.044 kcal/mol, respectively.
On the same counts, the results for “SAGMVTISVTRPSSGTYVLNISNPLTGETETITLSTADPAAFKATAEAIAAELEAKGYPVKINLTPTAGSAG [r5_815_JUSTAS]” are 3.788 ± 0.014 kcal/mol, 3.6 ± 0.063 kcal/mol and 3.73 ± 0.048 kcal/mol.
Regarding “SAGMVVLTEPGNGRLVVSELPEELAEEIARELGLPDITPVPPGVPAEEARAAHPALTAALEIPPEVLLSAGG [r19_270_JUSTAS]”, the “folding stability dG unfold” value in series [1] is 0.0886 ± 0.032 kcal/mol; in series [2] it was -0.149 ± 0.16 kcal/mol; in series [3] it was 0.0846 ± 0.14 kcal/mol.
On the same counts, the results for “SAGMVVVEIRTRDGRTLTVEVEAESEEEAERLARELAEELRRKFPDLEIRVERVEPPEPPEEVVEEEEESAG [r5_950_TrROS_Hall]” are 3.41 ± 0.13 kcal/mol, 3.23 ± 0.13 kcal/mol and 3.42 ± 0.21 kcal/mol.
